According to the supplement of paper PMC12636428:

Test system: Saccharomyces cerevisiae
Assay: transcriptional activation domain activity (GFP:mCherry ratio, weighted mean of sorted bins, harmonized to initial dataset scale) (arbitrary fluorescence ratio units); higher = stronger transcriptional activation
Settings: beta-estradiol 1 µM; induction time 4 h
Procedure, shortened: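 For this assay, yeast diploids with a GFP reporter carried barcoded protein tiles at URA3, each fused to an estradiol-inducible synthetic transcription factor. Induction was a 1:5 dilution into SC with 1 uM beta-estradiol for 4 hours at 30 °C, followed by sorting into 8 bins by GFP:mCherry ratio and barcode sequencing. Tiles under 50 reads were dropped, and activation activity was calculated as the read-weighted mean of bin median fluorescence, averaged across barcodes and linearly mapped onto the initial dataset scale.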

MHHELLRPILRLGHLMWTICFWMRRIMINAESPYRKTILHVRRSNWLFRRIIT
transcriptional activation domain activity: 81600

MGCICVILARCYCQTLNHFLTVLLLFRSVIFVLFLLFHFFVFVYVLFFFSFII
transcriptional activation domain activity: 42000

EAEAGADGSEGGEDDGREKEEVEEEGGEEEGGEEEGREDDDTKAEAEAEELSE
transcriptional activation domain activity: 26600

IVIPGGRPGSVGGGGWFGGSSVFLEGLEGLEDGVMFGNAWEFDLLDLEWLFPF
transcriptional activation domain activity: 121000

AKSNKRRRASAPSSNTFKGSKRSASNASSQSKASNSNRVIKRARRASSASTKK
transcriptional activation domain activity: 20900

ERGTEEREKEREEGMRGRRGKRNRGRWKREGEEEGGEEEGRKGRKEKGRQGAE
transcriptional activation domain activity: 47700

DNAHVLQEYLAVFRHLLSYHDPKLSSHMETIGFMPDLYAIPWFLTLFTHVFPL
transcriptional activation domain activity: 58600

SLHLAGCMLITCIGFIVLACLDVSQHIGAGYFCCFLLCCGGYISSPLLSTWYN
transcriptional activation domain activity: 94700

MRGFYYYLFCLFAEFGIHGVLFHGGFFLLLFFFLSSSLWLALTRFRWPFPFVF
transcriptional activation domain activity: 57800

LLRFSLLLMFPWLVCLVSCFPCFPLLLPTSCATRFRFLHPFLTVSLLSLLFLC
transcriptional activation domain activity: 56800

GGGGDNAAAGEKNSSSSSNSHHNSSKKSGRGGRSNSESRNEGGGRSTAGGGSA
transcriptional activation domain activity: 31800

VVTLHEILKCLGHLRSLVLTAKAFGCLQAIRMILEHFLLVWRKTITHCLRYSE
transcriptional activation domain activity: 60400

LKQMAGRDFEDILQCIMPVFEGLLPPPHDDLVMSLLFTLAFWHALAKLRLHTE
transcriptional activation domain activity: 56300

KSPHMSAVESKPKEAKTVVEPKADKAAEVKKEEPKKEVVAAPEPVAAKPIAQI
transcriptional activation domain activity: 35600

ENASEPQKQEAEEKPKSTTAASTSVPRSSKPSVEAKPVRKSRRTGAQRRAPSQ
transcriptional activation domain activity: 38800

MSSDDDSAPRTKRGGKPTTKKQQKRAIARACDRCRQKKVKCDGASLAIGAVCQ
transcriptional activation domain activity: 40600

RRVGEVMCFQALLHFLGMLSFWYGVLRRLGFTLINFFLNRVVLLGLLAFICYE
transcriptional activation domain activity: 69500

NQAQPSTSGGFGQPSAFGSATPSSSAFGGGAASTPTQPSAFGASTTPAAAPTA
transcriptional activation domain activity: 8250

KLGAAGGGRGSERDKRRRGEGERGGGDAVARAGEGEGRGRGRRRRKRSAACAG
transcriptional activation domain activity: 39200

ARYVVQYKNSLIGKHFKMLQQLGIFHLHDLCSPLLFDLWKATGELGALLWFPE
transcriptional activation domain activity: 66700

FRAPYPCCLDVVFAMIWAGARVCLFDSTKALEDLLLARFVLPPHVVCLVGLAQ
transcriptional activation domain activity: 48900

LQRPVRIMVDTKHSTVKTLVQEFVRIRPQRDHLRLAMLVLLCRDYFHKRVIVF
transcriptional activation domain activity: 49000

KGVAVADRVVKFVAGYVAYATEQDAAKRPEGEEDVETPSSRFVTKLLRHLLSG
transcriptional activation domain activity: 56400

MIKFSLLIFLIVFILDYLIFFCFFFFFLFFYFFIQFTLFMVCGGDLIYGFING
transcriptional activation domain activity: 43200

DNAQANAGGARGRRDDGAGTSKEDGEEEGAYEGDSEEDKKKRRKGRSKRRGGD
transcriptional activation domain activity: 48100

MDPSTRRRVTNIGPLDKRRTLRRCEQCRISRTKCEGGRPCHACRARLVGCRDQ
transcriptional activation domain activity: 41700

ILRVERTGHSGTLDPKVTGCLIVCIDRATRLVKSQQGAGKEYVAVIRLHGKLP
transcriptional activation domain activity: 33800

AALLHLIILISFGNLLLVPKCCLLVHTLRFWCRVFFLNPSLVLSFALSTFIYS
transcriptional activation domain activity: 58900

CLHFQFSLLFLLCLYVCVGWIFYACILSYLPPLLFIVSFVTILQRTAFCFGEE
transcriptional activation domain activity: 45000

PQSANITGACTELGEHTDCPIWNLLDARSLFRSCADLLISSWTWWWLAACRYV
transcriptional activation domain activity: 44700

MTRAFTIMINLITIVLSFLMSQSFTSYVCHILLCPLANLRPQLLYIWWVSPVL
transcriptional activation domain activity: 54200

MVLLGSCTLLIGKTITPYILVHKTGILYPLLFFFFFSLSLSFFYFFIGTFPLG
transcriptional activation domain activity: 52100

HHLVITHVILFCLITFRCFTVIVRSIYERWHIKSAVIVLDLGSSWGLAANVPW
transcriptional activation domain activity: 43600

EGTGYITVSSGTRYVRLVGARGEEGEGVFGGGRRRRVEVVDFSRARVRAAQIG
transcriptional activation domain activity: 49000

AAAAGVPIASDESETEVEEEGSSSADIGQAATTGRGRSPPKQQQQQQSVAAVS
transcriptional activation domain activity: 38500

SASSKNGDKPKTVRKKGGEPEVSKESTPKPRTTARNRKGAKQEEAKNKTITGR
transcriptional activation domain activity: 41300

VEAPAEEQAEAPKTKRGRKAAEPAPVEPKEAEAPEPAAKPKRGRKAVSEEPME
transcriptional activation domain activity: 42100

VFRLCLGDLFRPYGISLNVIRLMLMATGTDLDFYVPRSKWRQVLLFLRLASGY
transcriptional activation domain activity: 72200

TADTAAASTSQPKLAQDQQQATDGENSEKRKPGRPRGSRNRKPRASVGSATKA
transcriptional activation domain activity: 37800

AVLWNPCICFKSPLVFRFCLSVLLAYLSLPFIPFVFLYYCFLFFVLWFIHSSY
transcriptional activation domain activity: 31700

KSKKRSRVDEEDEEEYGASSSKAKAKKDKEKPAKKAAAKGKEKAAKGKASAKG
transcriptional activation domain activity: 26200

ITVFNYTVYDIISPTGTNYLAFMCWIGLWSLVFHWILAITNCCNWLRYVTRFP
transcriptional activation domain activity: 32700

FFSFPSFLLLPPPLSSLPFPSPFLSLLLSLLAFPAAFFPLFSLSSLLNIFPTT
transcriptional activation domain activity: 58500

CVRVLCISFSLTLSSSCLLVGIVLRWSLCCLLYFVCVPLHLDTLLSFSSIPTL
transcriptional activation domain activity: 50600

KSNDSSAEKDTRSMVFCETEKVSYTGANFGEDAARDVHCKYLVGVYSKSQKQL
transcriptional activation domain activity: 37900

SQLQDPIAKEHVAFGLRHMYKTLQNEVKSYYNLMQSLHVRLPGLEFLTLWMAF
transcriptional activation domain activity: 50100

MLKLCFFCAFLFLFLIIYYIYIFCFFFPFSLPSFSFFSFIPALIFFFFVVVEP
transcriptional activation domain activity: 48200

CVFRLGFLFIFLVSYSIAWEWFFLFSLWHLCLLPLDIISIFLLFLGPLLWRSF
transcriptional activation domain activity: 31500

MSNVQTELPFFPSCFVFFRGSFSFFCLVLFPLMAFIIELSILSFRCLFLLFLL
transcriptional activation domain activity: 61300

KLAKKEPAAAKPKSEKPKAEKKTTEKKPVAKKATTTKKPAAAKPKAAPKPKTA
transcriptional activation domain activity: 27000

CGSQSPALLYPYYQIDTIVPCIRDLESYYKSAGFPTTTLIWPLFLHLMILFVV
transcriptional activation domain activity: 75400

MGLKGLLRSTIYVSSLVWLGWVVNLGQFLLFPFYSVTLKLSYNVNACIISVLV
transcriptional activation domain activity: 68500

TLDTVMRDTANMDWVRFLPLSLLFTSFIFSPLSFSLFRMYVHALLFFCFTFTP
transcriptional activation domain activity: 49600

RKHMMAFYFDDILEKVVGTATMDERGVFIRDNERGILWCLLVFRMLCWLILHD
transcriptional activation domain activity: 58000

MYLFFLFYILEFAVRSESGPICASNTKCIGRYCVYCKCTSLLSRVLRLLFICC
transcriptional activation domain activity: 64300

KVKKEKKEKKHRRHHHRHRDGSDDERSHKRRRRDDDKRGHRSSRSEHRRRSDS
transcriptional activation domain activity: 29800

MGLGVLYHLSLLFPFLFFFLSLLFFSLLSSSFFLLWLFPISCLGFIVLFWTGS
transcriptional activation domain activity: 22200

IQAEGLYQCRYRSYGIECIRYIFFFAMFGFLLKSEWYLSSAFFLGCLWHQLAF
transcriptional activation domain activity: 25300

DIFGQMKDFTERCHMYLDGNITLPISLHQKLVEIFSHLLCLIGMITRDMKRGW
transcriptional activation domain activity: 32500

LEGGRVIQRGRHNVATDVVGCFYDAFCTLLPQMIIVRVTRGKAWDSRVIYPTE
transcriptional activation domain activity: 66400

KIVKHVILAATWRTSSVQDSFYLLATWWIICWQFYFVSVYIFPLILIALLHYM
transcriptional activation domain activity: 60700

MRAAMDICVLIKMPCPLLKHTPFFTCAVTMAAVVYLSYWSFIATETGDDVIRE
transcriptional activation domain activity: 46700

MLLSSLLCYFLNFSSSSHSVGGWFILPYGNRLLHVAFFPSLLLFRLFFFLWLA
transcriptional activation domain activity: 52600

SAEFRANEFARHPLLDALLLSLMVDGSSTLLEIEVATLVCLLRQFAIHAPDTL
transcriptional activation domain activity: 51800

SLDALHIIFVAHSLYWYLVLNYITPLALLSIVWSFHLQIAINIMLIASVQTAY
transcriptional activation domain activity: 37300

EVKAESKPESKVEPKTEAKPEPKAEPKSEPKVEPKKSESSKKNKKKKAKKAAA
transcriptional activation domain activity: 33700

YISHSRCLLVFPVLPFFVHYLLFVFSFALLQIIALEILSLVLFVLDLLSLFPH
transcriptional activation domain activity: 32800

SERRSHNQRDPERRDRNSNQSKRRRVDDSDSESDRRNRRRRVEHSSRKSHRSR
transcriptional activation domain activity: 43800

EGAQDCGESESEGANESEEESEEENVFVVGKILDKRTNGKRKQVEYLVRCESQ
transcriptional activation domain activity: 39600

MYYILMFLIYTCQLLLLLINLHWLAVACDTFPSWPLMQTNFYFCLLLLVTLFR
transcriptional activation domain activity: 31900

PNGLMDPVLSTTNVSATSSNDNSANNSISSPEYTFGQFSMDSPHRTDATNTPI
transcriptional activation domain activity: 23000

YKCVGLSPDCKTAFFMNVTAFLVCPLANFESGKIPKTDLILLSKSSRECKYKA
transcriptional activation domain activity: 29600

EETVTAEPAAVEEKDGGDDAMAIDTEEPKKKSKKDKKDKKRKAAAETTTATGT
transcriptional activation domain activity: 40600

DGHFGSDFGWVWPFSFSLFCFLFCILHFLVYCTHNVLLWKQLSLNFLFCIFHG
transcriptional activation domain activity: 54100
